From PMC5818487

Assays:
Assay in all cases: SPR; Biacore T200; ICAM-1-Fc proteins captured on Protein A on a CM5 chip (1108 ± 108 RU); DBLβ domains flowed as twofold dilution series 1000-7.81 nM at 30 µl/min, 240 s association, 600 s dissociation; 10 mM HEPES pH 7.2, 250 mM NaCl, 0.05% Tween-20; global 1:1 model; 1 mg/ml ssDNA added to BC12a DBLβ
[1] = target: ICAM-1 domains 1-5 Fc fusion protein (reference, wild type) (UniProt P05362)
[2] = target: ICAM-1 Kilifi (K29M) Fc fusion protein (UniProt P05362)
[3] = target: ICAM-1 L42A mutant Fc fusion protein (UniProt P05362)
[4] = target: ICAM-1 L44A mutant Fc fusion protein (UniProt P05362)
[5] = target: ICAM-1 S22A mutant Fc fusion protein (UniProt P05362)

Row | Substance | Kd [1] [nM] | koff [1] [s⁻¹] | kon [1] [M⁻¹ s⁻¹] | % ICAM-1^D1D5 binding [2] [%] | % ICAM-1^D1D5 binding [3] [%] | % ICAM-1^D1D5 binding [4] [%] | % ICAM-1^D1D5 binding [5] [%] | Kd [5] [nM]
1 | BC12a DBLβ domain (PfEMP1 of the dominantly expressed var gene of isolate BC12) (domain or fragment) | 197 | 0.000944 | 4800 |  |  |  |  | 
2 | IT4var13 DBLβ domain (from UniProt A3R6S0 1-3274) (domain or fragment) | 3.45 | 0.000125 | 36100 | 8.9 | 3.1 | 10 | 94.5 | 9.82
3 | J1a DBLβ domain (PfEMP1 of the dominantly expressed var gene of isolate J1) (domain or fragment) | 51.7 | 0.00153 | 29600 | 5.4 | 1.4 | 2.7 | 10.9 | 
